{"source": "patent US20230181681A1", "about": "“PEPTIDE FOR SUPPRESSING CORONAVIRUS AND USE THEREOF” (priority 2020, published 2023)", "binders": {"B1": {"name": "Spike CD-F (peptide)", "peptide": "TGCGTNCMGKLKCNRC", "modifications": "not checked"}}, "target": "MERS-CoV N protein (MERS-CoV), K9N4V7"}
{"binder": "B1", "values": [{"measurement": "percent inhibition of the interaction between Spike CD-Full and N protein", "result": 40, "unit": "%"}]}
